For this test, the target named is T1, HLA-A*02:01 (human).
T1 construct: the format of the assay is not described
Put plainly: ELISA-based peptide-MHC binding assay (FIG. 5). (In an ELISA, binding on a coated surface is turned into a signal by an enzyme label.)

Consider KIQEILTQV [IGF2BP3-001 peptide KIQEILTQV (SEQ ID NO: 1)], for which the binding result is given as “binds”.

(Values after patent publication US12466878 (IMMATICS BIOTECHNOLOGIES, dated 2025).)
